Results on two substances are retold here after article PMC5923229.

The target in assay [1] is H46R/H48Q SOD1 artificial copper site mutant (UniProt P00441). Description: native MS; nanoESI of SOD1 at different protein concentrations in 200 mM NH4OAc (pH 6.8), gentle conditions; monomer and dimer signal compared; dimer to monomers.
Assay [2] addresses H46R/H48Q SOD1 with ebselen conjugated at Cys111 (UniProt P00441). The assay is described as above.

In turn, “H46R/H48Q SOD1 artificial copper site mutant (from UniProt P00441 2-154) (enzyme)” yielded a Kd in assay [1] of 5.3 µM.
For the substance “H46R/H48Q SOD1 with ebselen conjugated at Cys111 (from UniProt P00441 2-154) (enzyme)”, in assay [2], the Kd came to 0.22 µM.
